According to paper PMC6310155:

Molecular target: MmRIPK3 (S02-H303) kinase domain, N-terminal histidine tag (mouse)
Assay: SEC

stoichiometry N: 2
Substance: MmRIPK3 (S02-H303) kinase domain, N-terminal histidine tag (domain or fragment)
